Tested on: CHO-M1 cells
Assay: Entry of a fluorophore into cells in culture, fluorescence reader
Conditions: 2.5 μM or 5 μM in KREBS buffer, 1 hour, FIG. 13
Protocol: CHO cells are cultivated at 37° C., under a controlled atmosphere containing 5% of CO2, in F-12 HAM medium (Invitrogen)+10% of fetal calf serum (FCS) previously inactivated for 20 min at 60° C.
On the day before the experiment, CHO-M1 cells are inoculated into a 96-well plate at a density of 10,000 cells per well.
On the day of the experiment, the culture medium is aspirated and replaced with the test compounds at a concentration of 2.5 μM or 5 μM in KREBS buffer (Sigma). After 1 hour of incubation, the wells are washed with a KREBS buffer+0.05% Tween 20. The cells are then lyzed in a PBS buffer+0.1% Triton X100. The fluorescence is measured on an Analyst AD reader (LJL, Molecular Devices) with the filters and the dichroic appropriate for the spectral specificities of the compound to be detected.

N=C(N)NCCCC(NC(=O)CCCCCN)C(=O)NCCCCCC(=O)NC(CCCNC(=N)N)C(=O)NCCCCCC(=O)NC(CCCNC(=N)N)C(=O)NCCCCCC(=O)NC(CCCNC(=N)N)C(=O)NCCCCCC(=O)NC(CCCNC(=N)N)C(=O)NCCCCCC(=O)NC(CCCNC(=N)N)C(=O)NCCCCCC(=O)NC(CCCNC(=N)N)C(=O)NC(CSCC(=O)Nc1ccc2c(c1)C1(OC2=O)c2ccc(O)cc2Oc2cc(O)ccc21)C(N)=O (stereo not shown) [R7fluorescein]
entry into the cell (fluorescence intensity of lysed cells): enter the cell

Reference: patent US8470523B2, “Method for detecting intracellular interaction between biomolecules” (CIS BIO International, priority 2005, dated 2013)
